Measurements taken from patent US20190119407A1 (Amgen, published 2019).
Positions count from the first letter of the chain named. Each block holds one binder with its values, some of them ahead of it.

Legend:
human TL1A [1] = target: T1, human TL1A (human, UniProt O95150 72-251, limits assumed); assay: cell-based or functional assay
T1 sequence (looked up): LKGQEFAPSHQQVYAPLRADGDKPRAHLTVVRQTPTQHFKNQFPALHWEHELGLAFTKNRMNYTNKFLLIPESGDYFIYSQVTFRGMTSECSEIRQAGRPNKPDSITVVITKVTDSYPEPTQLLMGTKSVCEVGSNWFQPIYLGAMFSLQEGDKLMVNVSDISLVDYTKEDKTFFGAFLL

cynomolgus TL1A [2] = target: T2, cynomolgus TL1A (cynomolgus monkey, UniProt G7PRK8 72-251); assay: cell-based or functional assay
T2 sequence: T1 sequence (looked up) with F39L, I78V

human TL1A [3] = target: T1, human TL1A; assay: SPR, mAb captured on anti-human Fc chip, TL1A injected, 1:1 model
Protocol: (§1) On rate, off rate and equilibrium dissociation constant were calculated using 1:1 binding model on BIAevaluation software.

cynomolgus TL1A [4] = target: T2, cynomolgus TL1A; assay: as above
Protocol: as §1

human TL1A [5] = target: T1, human TL1A; assay: SPR, Fab captured on anti-huFab chip, TL1A injected, 1:1 model
Protocol: as §1

cynomolgus TL1A [6] = target: T2, cynomolgus TL1A; assay: as above
Protocol: as §1

human TNF-α = target: T3, human TNF-α (human, UniProt P01375 77-233); assay: SPR, bispecific captured on anti-human Fc chip, TNF injected, 1:1 model
T3 construct: also called Hu TNF; soluble hu TNF
Protocol: Goat anti-human Fc was first immobilized on SCM5 sensor chip using amine coupling. […] On rate, off rate and equilibrium dissociation constant were calculated using 1:1 binding model on BIAevaluation software.

human TL1A [7] = target: T1, human TL1A; assay: SPR, bispecific captured on anti-human Fc chip, TL1A injected, 1:1 model
Protocol: as §1

cynomolgus TL1A [8] = target: T2, cynomolgus TL1A; assay: SPR, Fab captured on anti-huFab chip, TL1A injected
Protocol: as §1

T3 sequence (P01375 77-233 limits assumed): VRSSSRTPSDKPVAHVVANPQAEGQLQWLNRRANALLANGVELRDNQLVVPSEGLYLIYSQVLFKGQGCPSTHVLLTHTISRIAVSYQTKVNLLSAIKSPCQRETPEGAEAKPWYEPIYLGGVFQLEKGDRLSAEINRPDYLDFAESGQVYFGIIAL

B2: anti-TL1A Fab 23B3 (Fab, V domains shown)
VH: QVQLQQSGPGLVKPSQTLSLTCVISGDSVSTNSVAWNWIRQSPSRGLEWLGRTYYRSKWYNDYAVSVKSRITINPDTSKNQFSLQLNSVTPEDTAVYYCAREDGDSYYRYGMDVWGQGTTVTVSS
VL: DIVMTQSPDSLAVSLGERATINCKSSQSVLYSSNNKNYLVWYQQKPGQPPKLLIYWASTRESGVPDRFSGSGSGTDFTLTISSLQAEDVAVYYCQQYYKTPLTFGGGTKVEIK
notes: Fab fragment; the Fab's constant parts are not; also called 23B3 Fab; PL-38024
- Kd (human TL1A [5]): 0.85 nM
- koff (human TL1A [5]): 0.00064 s⁻¹
- kon (human TL1A [5]): 760000 M⁻¹ s⁻¹
- Kd (cynomolgus TL1A [6]): 0.31 nM
- koff (cynomolgus TL1A [6]): 0.00016 s⁻¹
- kon (cynomolgus TL1A [6]): 530000 M⁻¹ s⁻¹
- NF-kB IC50 nM, huTL1A (0.2 nM) (human TL1A [1]): 2.99 nM
- NF-kB IC50 nM, cyno TL1A (2 nM) (cynomolgus TL1A [2]): 2.63 nM

B3: anti-TL1A Fab 2G11 (Fab, V domains shown)
VH: QVQLQESGPGLVKPSETLSLTCTVSGGSISSYFWSWIRQPPGKGLEWIGYIYYSGSTNYNPSLKSRVTMSIDTSKNQFSLKLSSVTAADTAVYYCAREIGSYYGFDYWGQGALVTVSS
VL: DIQMTQSPSSLSASVGDRVTITCRASQSINNYLNWYQQKPGIAPKLLIYATSSLQSGVPSRFSGSGSGTDFSLTISSLQPEDFATYFCQQSYSTPRTFGQGTKVEIK
notes: Fab fragment; the Fab's constant parts are not; also called 2G11 Fab; PL-38025
- Kd (human TL1A [5]): < 0.3 nM
- NF-kB IC50 nM, huTL1A (0.2 nM) (human TL1A [1]): 0.551 nM

B5: anti-TL1A mAb 3C6 (antibody, human IgG1, kappa, N297G, V domains shown)
VH: QVQLVESGGGVVQPGRSLRLSCAASGFTFSSYGMHWVRQAPGKGLEWVAVISYDGNNKLYTDSVKGRFTISRDDSKSTLYLQMNSLRAEDTAVYYCARDPTVTLYYYYGMDVWGQGTTVTVSS
VL: DIQMTQSPSSLSASVGDRVTITCRTSQDIRDDLGWYQQKPGKAPKRLIYDASSLQSGVPSRFSGSGSGTEFTLTISSLQPEDFATYYCLQHNSYPPTFGQGTKVEIKR
notes: also called PL-39112; iPS 284112
- NF-kB IC50 nM, huTL1A (0.2 nM) (human TL1A [1]): 0.153 nM
- NF-kB IC50 nM, cyno TL1A (2 nM) (cynomolgus TL1A [2]): > 100 nM
- Kd (human TL1A [3]): < 0.1 nM
- koff (human TL1A [3]): < 5e-05 s⁻¹
- Kd (cynomolgus TL1A [4]): 2.4 nM
- koff (cynomolgus TL1A [4]): 0.0014 s⁻¹
- kon (cynomolgus TL1A [4]): 570000 M⁻¹ s⁻¹

B6: anti-TL1A mAb 17E9 (antibody, human IgG1, kappa, N297G, V domains shown)
VH: B5 VH with F29L, I51M, T61A, D74N, S77K, P100E, V102E, M110I
VL: B5 VL with T25A, D28G, R30S, D31N, G34A, Y49F, D50A, Q100G
notes: also called PL-39113; iPS 284078
- NF-kB IC50 nM, huTL1A (0.2 nM) (human TL1A [1]): 0.168 nM
- NF-kB IC50 nM, cyno TL1A (2 nM) (cynomolgus TL1A [2]): > 100 nM
- Kd (human TL1A [3]): 0.22 nM
- koff (human TL1A [3]): 5.3e-05 s⁻¹
- kon (human TL1A [3]): 250000 M⁻¹ s⁻¹
- Kd (cynomolgus TL1A [4]): 2.8 nM
- koff (cynomolgus TL1A [4]): 0.002 s⁻¹
- kon (cynomolgus TL1A [4]): 730000 M⁻¹ s⁻¹

Other lines, results leading:

- NF-kB IC50 nM, huTL1A (0.2 nM) (human TL1A [1]): 0.089 nM
- NF-kB IC50 nM, cyno TL1A (2 nM) (cynomolgus TL1A [2]): 0.619 nM
- Kd (human TL1A [3]): 0.89 nM
- koff (human TL1A [3]): 0.00042 s⁻¹
- kon (human TL1A [3]): 470000 M⁻¹ s⁻¹
- Kd (cynomolgus TL1A [4]): 1.4 nM
- koff (cynomolgus TL1A [4]): 0.00032 s⁻¹
- kon (cynomolgus TL1A [4]): 230000 M⁻¹ s⁻¹
B1: anti-TL1A mAb 23B3 (antibody, human IgG1, kappa, N297G, V domains shown)
VH: B2 VH
VL: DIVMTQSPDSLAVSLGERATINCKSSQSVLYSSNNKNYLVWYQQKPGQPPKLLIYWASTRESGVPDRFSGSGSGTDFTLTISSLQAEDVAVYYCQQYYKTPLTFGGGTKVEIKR
notes: also called iPS 290043

- Kd (human TNF-α): 0.016 nM
- koff (human TNF-α): 5.5e-05 s⁻¹
- kon (human TNF-α): 3.4e+06 M⁻¹ s⁻¹
- Kd (human TL1A [7]): 0.64 nM
- koff (human TL1A [7]): 0.0004 s⁻¹
- kon (human TL1A [7]): 630000 M⁻¹ s⁻¹
B4: hetero Ig certolizumab var/23B3 VH4, iPS 349463 (bispecific antibody, human IgG1, kappa, N297G)
light 1: not shown
heavy 1: not shown
light 2: not shown
heavy 2: QVQLQESGPGLVKPSETLSLTCTISGDSVSTNSVAWNWIREPPGKGLEWIGRTYYRSKWYNDYAVSLKSRVTISPDTSKNQFSLKLSSVTAADTAVYYCAREDGDSYYRYGMDVWGQGTTVTVSSASTKGPSVFPLAPSSKSTSGGTAALGCLVKDYFPEPVTVSWNSGALTSGVHTFPAVLQSSGLYSLESVVTVPSSSLGTQTYICNVNHKPSNTKVDKKVEPKSCDKTHTCPPCPAPELLGGPSVFLFPPKPKDTLMISRTPEVTCVVVDVSHEDPEVKFNWYVDGVEVHNAKTKPCEEQYGSTYRCVSVLTVLHQDWLNGKEYKCKVSNKALPAPIEKTISKAKGQPREPQVYTLPPSRKEMTKNQVSLTCLVKGFYPSDIAVEWESNGQPENNYKTTPPVLKSDGSFFLYSKLTVDKSRWQQGNVFSCSVMHEALHNHYTQKSLSLSPGK
notes: Heterotetramer with one arm against TNF-α and one against TL1A; also called PL-42788

- binding result (cynomolgus TL1A [8]): no binding (tested: 100 nM)
- Kd (human TL1A [5]): < 0.1 nM
- koff (human TL1A [5]): < 5e-05 s⁻¹
- NF-kB IC50 nM, huTL1A (0.2 nM) (human TL1A [1]): 70.8 nM
- NF-kB IC50 nM, cyno TL1A (2 nM) (cynomolgus TL1A [2]): > 100 nM
B7: anti-TL1A Fab 17E9 (Fab, V domains shown)
VH: B5 VH with F29L, I51M, T61A, D74N, S77K, P100E, V102E, M110I
VL: DIQMTQSPSSLSASVGDRVTITCRASQGISNDLAWYQQKPGKAPKRLIFAASSLQSGVPSRFSGSGSGTEFTLTISSLQPEDFATYYCLQHNSYPPTFGGGTKVEIK
notes: Fab fragment; the Fab's constant parts are not; also called 17E9 Fab; PL-39194

- binding result (cynomolgus TL1A [8]): no binding (tested: 100 nM)
- Kd (human TL1A [5]): < 0.1 nM
- koff (human TL1A [5]): < 5e-05 s⁻¹
- NF-kB IC50 nM, huTL1A (0.2 nM) (human TL1A [1]): 0.162 nM
- NF-kB IC50 nM, cyno TL1A (2 nM) (cynomolgus TL1A [2]): > 100 nM
B8: anti-TL1A Fab 3C6 (Fab, V domains shown)
VH: B5 VH
VL: B7 VL with A25T, G28D, S30R, N31D, A34G, F49Y, A50D, G100Q
notes: Fab fragment; the Fab's constant parts are not; also called 3C6 Fab; PL-39193

- Kd (human TNF-α): 0.019 nM
- koff (human TNF-α): 6.4e-05 s⁻¹
- kon (human TNF-α): 3.4e+06 M⁻¹ s⁻¹
- Kd (human TL1A [7]): 0.25 nM
- koff (human TL1A [7]): 0.00013 s⁻¹
- kon (human TL1A [7]): 540000 M⁻¹ s⁻¹
B9: hetero Ig certolizumab var/2G11 var, iPS 349461 (bispecific antibody, human IgG1, kappa, N297G)
light 1: not shown
heavy 1: not shown
light 2: DIQMTQSPSSLSASVGDRVTITCRASQSINNYLNWYQKKPGKAPKLLIYATSSLQSGVPSRFSGSGSGTDFSLTISSLQPEDFATYFCQQSYSTPRTFGQGTKVEIKRTVAAPSVFIFPPSDEQLKSGTASVVCLLNNFYPREAKVQWKVDNALQSGNSQESVTEQDSKDSTYSLKSTLTLSKADYEKHKVYACEVTHQGLSSPVTKSFNRGEC
heavy 2: QVQLQESGPGLVKPSETLSLTCTVSGGSISSYFWSWIREPPGKGLEWIGYIYYSGSTNYNPSLKSRVTMSIDTSKNQFSLKLSSVTAADTAVYYCAREIGSYYGFDYWGQGTLVTVSSASTKGPSVFPLAPSSKSTSGGTAALGCLVKDYFPEPVTVSWNSGALTSGVHTFPAVLQSSGLYSLESVVTVPSSSLGTQTYICNVNHKPSNTKVDKKVEPKSCDKTHTCPPCPAPELLGGPSVFLFPPKPKDTLMISRTPEVTCVVVDVSHEDPEVKFNWYVDGVEVHNAKTKPCEEQYGSTYRCVSVLTVLHQDWLNGKEYKCKVSNKALPAPIEKTISKAKGQPREPQVYTLPPSRKEMTKNQVSLTCLVKGFYPSDIAVEWESNGQPENNYKTTPPVLKSDGSFFLYSKLTVDKSRWQQGNVFSCSVMHEALHNHYTQKSLSLSPGK
notes: Heterotetramer with one arm against TNF-α and one against TL1A; also called PL-42787
